Experimental data as given in paper doi:10.1101/2023.12.07.570680.

T1: EMB1006-MBP (Arabidopsis thaliana, UniProt Q9FGR7 44-723)
T1 sequence: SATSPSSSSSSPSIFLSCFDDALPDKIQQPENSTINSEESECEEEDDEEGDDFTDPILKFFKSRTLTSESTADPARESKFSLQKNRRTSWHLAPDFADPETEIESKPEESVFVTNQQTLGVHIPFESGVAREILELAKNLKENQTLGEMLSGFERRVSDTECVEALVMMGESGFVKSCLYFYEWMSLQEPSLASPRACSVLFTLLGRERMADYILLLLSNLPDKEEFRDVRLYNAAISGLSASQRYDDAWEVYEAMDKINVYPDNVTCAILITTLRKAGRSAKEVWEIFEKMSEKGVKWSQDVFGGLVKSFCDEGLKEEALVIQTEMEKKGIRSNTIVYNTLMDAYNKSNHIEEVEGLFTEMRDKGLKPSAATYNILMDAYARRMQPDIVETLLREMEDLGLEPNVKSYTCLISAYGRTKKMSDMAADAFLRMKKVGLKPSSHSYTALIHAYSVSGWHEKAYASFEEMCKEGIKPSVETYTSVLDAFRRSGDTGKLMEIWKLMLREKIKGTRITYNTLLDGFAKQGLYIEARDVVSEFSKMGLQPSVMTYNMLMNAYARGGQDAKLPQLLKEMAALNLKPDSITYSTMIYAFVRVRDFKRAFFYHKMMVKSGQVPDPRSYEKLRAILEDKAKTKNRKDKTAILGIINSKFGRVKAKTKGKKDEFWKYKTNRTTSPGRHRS

T2: EMB976-MBP (Arabidopsis thaliana, UniProt O04647 1-1038)
T2 sequence: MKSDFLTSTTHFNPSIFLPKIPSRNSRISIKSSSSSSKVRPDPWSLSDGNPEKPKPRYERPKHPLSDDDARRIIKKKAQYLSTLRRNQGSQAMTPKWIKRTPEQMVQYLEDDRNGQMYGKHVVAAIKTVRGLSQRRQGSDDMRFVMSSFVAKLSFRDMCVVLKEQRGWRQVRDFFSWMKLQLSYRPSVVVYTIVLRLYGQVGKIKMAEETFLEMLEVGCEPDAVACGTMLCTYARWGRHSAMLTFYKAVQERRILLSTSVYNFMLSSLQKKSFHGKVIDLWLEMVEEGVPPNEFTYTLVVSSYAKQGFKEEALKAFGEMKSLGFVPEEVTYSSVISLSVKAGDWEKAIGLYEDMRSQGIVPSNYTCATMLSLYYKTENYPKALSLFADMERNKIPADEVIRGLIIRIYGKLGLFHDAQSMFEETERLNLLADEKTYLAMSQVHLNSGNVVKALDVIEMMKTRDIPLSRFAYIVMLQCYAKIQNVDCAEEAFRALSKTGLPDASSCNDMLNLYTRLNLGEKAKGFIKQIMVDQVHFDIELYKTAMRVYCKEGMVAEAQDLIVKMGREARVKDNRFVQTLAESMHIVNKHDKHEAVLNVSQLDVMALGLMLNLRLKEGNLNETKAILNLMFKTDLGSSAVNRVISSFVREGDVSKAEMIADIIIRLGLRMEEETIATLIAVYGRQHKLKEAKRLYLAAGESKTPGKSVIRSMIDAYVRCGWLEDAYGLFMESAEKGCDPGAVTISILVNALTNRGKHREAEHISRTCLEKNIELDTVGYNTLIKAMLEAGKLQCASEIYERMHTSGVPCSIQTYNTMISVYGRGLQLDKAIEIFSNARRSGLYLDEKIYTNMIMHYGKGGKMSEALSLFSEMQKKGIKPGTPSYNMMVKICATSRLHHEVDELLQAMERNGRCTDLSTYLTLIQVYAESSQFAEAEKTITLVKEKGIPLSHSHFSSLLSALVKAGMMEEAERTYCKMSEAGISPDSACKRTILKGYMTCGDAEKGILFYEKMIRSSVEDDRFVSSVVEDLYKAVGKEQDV

B1: clpP1-exon2-Cold (ssRNA)
RNA: AAUUACCAAACGUAUAGCAUUCC
B2: Cy5-clpP1-intron2-976 (ssRNA)
RNA: GAAGAGGUUUUUCAAAUGAUA
B3: clpP1-intron2-Cold (ssRNA)
RNA: UUUUUUAGAUUAAAAAAAAAUUCG
B4: Cy5-clpP1-exon2 (ssRNA)
RNA: AAUUACCAAACGUAUAGCAUUCC

Tests used:
EMB1006-MBP [1] = target: T1, EMB1006-MBP; experiment: competition
EMB976-MBP = target: T2, EMB976-MBP; experiment: EMSA
EMB1006-MBP [2] = target: T1, EMB1006-MBP; experiment: EMSA

| Binder | binding result (EMB1006-MBP [1]) | further results |
| --- | --- | --- |
| B1 | binds |  |
| B2 |  | binding result (EMB976-MBP): no binding |
| B3 | no binding |  |
| B4 |  | binding result (EMB1006-MBP [2]): binds |
